To fix the notation:
B1: Intersectin-1, residues 1156 to 1213; numbered along this chain, Q15811 (parent)
chain: AVCQVIGMYDYTAQNDDELAFNKGQIINVLNKEDPDWWKGEVNGQVGLFPSNYVKLTT

± gives the uncertainty stated by the source.

The variants in this data set derive from B1. Kind of data set: abundance fitness (aPCA) (normalised: wild type 0, dead -1); higher = more abundant; growth selection in yeast, the domain comes from the species named. To be noted: Homo sapiens.
Regarding AVCQVIGMYGYTAQNDDELAFNKGQIINVLNKEDPDWWKGEVNGQVGLFPSNYVKLTT [D10G], the abundance fitness is -0.59 ± 0.1. The same measure for AVCQVIGMYNYTAQNDDELAFNKGQIINVLNKEDPDWWKGEVNGQVGLFPSNYVKLTT [D10N]: -0.227 ± 0.098; for AVCQVIGMYLYTAQNDDELAFNKGQIINVLNKEDPDWWKGEVNGQVGLFPSNYVKLTT [D10L]: -0.724 ± 0.16; for AVCQVIGMYHYTAQNDDELAFNKGQIINVLNKEDPDWWKGEVNGQVGLFPSNYVKLTT [D10H]: -0.262 ± 0.31. The same measure for AVCQVIGMYAYTAQNDDELAFNKGQIINVLNKEDPDWWKGEVNGQVGLFPSNYVKLTT [D10A]: -0.217 ± 0.1; for AVCQVIGMYMYTAQNDDELAFNKGQIINVLNKEDPDWWKGEVNGQVGLFPSNYVKLTT [D10M]: 0.001 ± 0.31.

As to AVCQVIGMYIYTAQNDDELAFNKGQIINVLNKEDPDWWKGEVNGQVGLFPSNYVKLTT [D10I], the abundance fitness was -0.919 ± 0.24. Turning to AVCQVIGMYVYTAQNDDELAFNKGQIINVLNKEDPDWWKGEVNGQVGLFPSNYVKLTT [D10V], the abundance fitness was -0.661 ± 0.14. The same measure for AVCQVIGMYQYTAQNDDELAFNKGQIINVLNKEDPDWWKGEVNGQVGLFPSNYVKLTT [D10Q]: -0.625 ± 0.23; for AVCQVIGMYCYTAQNDDELAFNKGQIINVLNKEDPDWWKGEVNGQVGLFPSNYVKLTT [D10C]: -0.472 ± 0.16. With AVCQVIGMYFYTAQNDDELAFNKGQIINVLNKEDPDWWKGEVNGQVGLFPSNYVKLTT [D10F] the figure was -1.01 ± 0.44; with AVCQVIGMYPYTAQNDDELAFNKGQIINVLNKEDPDWWKGEVNGQVGLFPSNYVKLTT [D10P], -0.246 ± 0.15.

With AVCQVIGMYRYTAQNDDELAFNKGQIINVLNKEDPDWWKGEVNGQVGLFPSNYVKLTT [D10R], the abundance fitness is -0.335 ± 0.1.

As to AVCQVIGMYYYTAQNDDELAFNKGQIINVLNKEDPDWWKGEVNGQVGLFPSNYVKLTT [D10Y], the abundance fitness is -0.838 ± 0.37.

For AVCQVIGMYWYTAQNDDELAFNKGQIINVLNKEDPDWWKGEVNGQVGLFPSNYVKLTT [D10W], the abundance fitness was -0.507 ± 0.22. With AVCQVIGMYSYTAQNDDELAFNKGQIINVLNKEDPDWWKGEVNGQVGLFPSNYVKLTT [D10S] the figure was -0.093 ± 0.13; with AVCQVINMYDYTAQNDDELAFNKGQIINVLNKEDPDWWKGEVNGQVGLFPSNYVKLTT [G7N], -1.15 ± 0.32. The same measure for AVCQVIVMYDYTAQNDDELAFNKGQIINVLNKEDPDWWKGEVNGQVGLFPSNYVKLTT [G7V]: -0.551 ± 0.093; for AVCQVIAMYDYTAQNDDELAFNKGQIINVLNKEDPDWWKGEVNGQVGLFPSNYVKLTT [G7A]: 0.54 ± 0.098. In the case of AVCQVIWMYDYTAQNDDELAFNKGQIINVLNKEDPDWWKGEVNGQVGLFPSNYVKLTT [G7W], the abundance fitness is -0.775 ± 0.15. For the variant AVCQVIHMYDYTAQNDDELAFNKGQIINVLNKEDPDWWKGEVNGQVGLFPSNYVKLTT [G7H], the abundance fitness is -0.466 ± 0.38. The same measure for AVCQVIFMYDYTAQNDDELAFNKGQIINVLNKEDPDWWKGEVNGQVGLFPSNYVKLTT [G7F]: -0.739 ± 0.19. The same measure for AVCQVICMYDYTAQNDDELAFNKGQIINVLNKEDPDWWKGEVNGQVGLFPSNYVKLTT [G7C]: 0.176 ± 0.12. Take AVCQVILMYDYTAQNDDELAFNKGQIINVLNKEDPDWWKGEVNGQVGLFPSNYVKLTT [G7L]: the abundance fitness is -0.618 ± 0.12. With AVCQVISMYDYTAQNDDELAFNKGQIINVLNKEDPDWWKGEVNGQVGLFPSNYVKLTT [G7S] the figure was 0.309 ± 0.083. The same measure for AVCQVIMMYDYTAQNDDELAFNKGQIINVLNKEDPDWWKGEVNGQVGLFPSNYVKLTT [G7M]: -0.681 ± 0.22. With AVCQVIPMYDYTAQNDDELAFNKGQIINVLNKEDPDWWKGEVNGQVGLFPSNYVKLTT [G7P] the figure was -0.519 ± 0.29.

With AVCQVIQMYDYTAQNDDELAFNKGQIINVLNKEDPDWWKGEVNGQVGLFPSNYVKLTT [G7Q], the abundance fitness was -0.893 ± 0.24.

AVCQVIDMYDYTAQNDDELAFNKGQIINVLNKEDPDWWKGEVNGQVGLFPSNYVKLTT [G7D]: the abundance fitness was -0.721 ± 0.11. With AVCQVIYMYDYTAQNDDELAFNKGQIINVLNKEDPDWWKGEVNGQVGLFPSNYVKLTT [G7Y] the figure was -1.13 ± 0.35. The same measure for AVCQVIKMYDYTAQNDDELAFNKGQIINVLNKEDPDWWKGEVNGQVGLFPSNYVKLTT [G7K]: -0.772 ± 0.21; for AVCQVIRMYDYTAQNDDELAFNKGQIINVLNKEDPDWWKGEVNGQVGLFPSNYVKLTT [G7R]: -0.849 ± 0.11; for AVCQVWGMYDYTAQNDDELAFNKGQIINVLNKEDPDWWKGEVNGQVGLFPSNYVKLTT [I6W]: -0.688 ± 0.2. Regarding AVCQVMGMYDYTAQNDDELAFNKGQIINVLNKEDPDWWKGEVNGQVGLFPSNYVKLTT [I6M], the abundance fitness is -0.092 ± 0.15. AVCQVYGMYDYTAQNDDELAFNKGQIINVLNKEDPDWWKGEVNGQVGLFPSNYVKLTT [I6Y]: the abundance fitness was -0.548 ± 0.24. The same measure for AVCQVRGMYDYTAQNDDELAFNKGQIINVLNKEDPDWWKGEVNGQVGLFPSNYVKLTT [I6R]: -0.446 ± 0.1; for AVCQVDGMYDYTAQNDDELAFNKGQIINVLNKEDPDWWKGEVNGQVGLFPSNYVKLTT [I6D]: -0.922 ± 0.25. With AVCQVFGMYDYTAQNDDELAFNKGQIINVLNKEDPDWWKGEVNGQVGLFPSNYVKLTT [I6F] the figure was -0.619 ± 0.17; with AVCQVAGMYDYTAQNDDELAFNKGQIINVLNKEDPDWWKGEVNGQVGLFPSNYVKLTT [I6A], -0.639 ± 0.17; with AVCQVVGMYDYTAQNDDELAFNKGQIINVLNKEDPDWWKGEVNGQVGLFPSNYVKLTT [I6V], 0.159 ± 0.1. With AVCQVTGMYDYTAQNDDELAFNKGQIINVLNKEDPDWWKGEVNGQVGLFPSNYVKLTT [I6T] the figure was -0.388 ± 0.11.

As to AVCQVLGMYDYTAQNDDELAFNKGQIINVLNKEDPDWWKGEVNGQVGLFPSNYVKLTT [I6L], the abundance fitness was -0.47 ± 0.1.

For the variant AVCQVKGMYDYTAQNDDELAFNKGQIINVLNKEDPDWWKGEVNGQVGLFPSNYVKLTT [I6K], the abundance fitness was -0.269 ± 0.2. The same measure for AVCQVNGMYDYTAQNDDELAFNKGQIINVLNKEDPDWWKGEVNGQVGLFPSNYVKLTT [I6N]: -0.765 ± 0.2; for AVCQVGGMYDYTAQNDDELAFNKGQIINVLNKEDPDWWKGEVNGQVGLFPSNYVKLTT [I6G]: -0.64 ± 0.12.

For the origin of these results see the Human Domainome abundance scans (Beltran et al. 2025).
